This data set is described as follows: label from the status in PepcDB records.
With “ANLYWFRADWFERPDLKKKFKDKYGYELGVPVNWSAYEDIAKFFSEDVKEIDGKKVFGHMDYGKKDPSLGWRFTDAWFSMAGSGDKGLPNGLPVDEWGIRVEDCHPVGSSITRGGDTNGPAAVFATQKYIDWLKAYAPPEAAGMTFSESGPVPSQGNVAQQIFWYTAFTADMTKPGLPVMNADGTPKWRMAPSPKGPYWKEGMKLGYQDVGSWTFLKSSDEKKRLAAWLYAQFVTSKSVSLKKTIVGLTPIRESDINSK”, the protein production entry was “failed”.
The result for “AQKLSATSRILSSSRGPAPDDIADFFGTDRAAQHITLRRLRLGNGRPYAIDNGWYNSEFAPDLLENDVYNSVYSILDRVYGVPVTQAEQTVTAVAADEDTARLLDVTPGAPLLRILRQSLSGDKPVEWCVSLYRTDRYSLKTLVTRSEDL” reads “not failed”; that for “MKQLFQKLYDHIEITLLVLLSVSFVTGMYMMMNRPIGPTMMDYVPQVIIGTIIIVDIVFLISGRKKENSK”, “failed”; that for “MADISLDELIRKRGAAAKGRLNARPGVGGVRSRVGIQQGLLSQSTRTATFQQRFDARQKIGLSDARLKLGVKDAREKLLQKDARFRIKGKVQDAREMLNSRKQQTTVPQKPRQVADAREKISLKRSSPAAFINPPIGTVTPALKLTKTIQNLYDLDEDDDGIASVPTKQMKFAASGGFLHHMAGLSSSKLSMSKALPLTKVVQNDAYTAPALPSSIRTKALPVLTSPGT”, “not failed”.
Then “MKIQLDINGTEIQKGVWVGSGAIIEPGAILNPPCVIGDNCRIESGAVIDSLSVIGNNNVIERDSSVKRSVIWDGNYIEYGSKIRGAILCSKTNLKRYVHIFENAIVGDNCLINERVVIKPNIKIWPQKTVEPFAIVDRNIIWGSKLEHHHHHH”, with “failed”.
Then “MRFPVLSRFLHPDPRIRRELVELLYTSLPQVMAIGVTSVTGALALTLLGDDPGYAVITFFILVTATARVFSLMRYKARAARFTDADVVRWERLYGAGATAFGLALGALSFRALQLGDAPGAWIAFGLSMSYCVGMVSRAAIRPWIILTAAAALLMPTMIAGLMRPELAYKIGAGMLVLFWLTLREASKHLSAAFTERLEAKHRLARQATHDFLTDLPNRAGFLQALSDMAGNFTVVAIDLDGFKPINDRHGHHTGDDLLRQVAERLTTCVGADGVAARFGGDEFMLLKPVTSAEQGRDEALALARKAVFDLSMPYLLADLPVCIGASAGIAISHAALAGGNTAQLLERVDRALYVAKRAGGGCAWADGDIEPSCCPRSTPLAKDSAAA”, with “failed”; and “MDKDYYKIMGVSQDASEKDIKMAYRKLARKYHPDISKEPDAEERFKEMAEAYEVLKDPKKRSEYDQYLKYKEFNPQSDGFTGRRTQEQPFQEFHFDSDFFETLFGHSRYQQQPMTGQNYHGKITISLEEAYHGAVKNLQVPVEQGTETKIQTLKVKIPAGVKSGQQIRLAGQGGSGSGGGARGDLYLTVEVMKHPIFDVMENDIYLTLPVTPWEAALGATVVIPTLAGKIDLKIPPGSQGGQKLRIKNRGLPGSPPGNQYVLLKIITPPAQTEEAKALYKKMAEVMPYNPRKTMGV”, with “failed”.
In the case of “MDTNYKMLYEKYEKLKNEFSTYQNFAETQIQRMNGKNTELEKKLDILTNVIEVSKYINSNISDDNLVPMINDMIIGILGVTYSTIYLVEDDEKLIVKASNVMDNYDIIVNPVFSTFSDNRPIVINSKEPLFKEFKNKLKVHSIIGVPITLRDNFRGYIIVEHTLYDFFSHGHIKFISSIANQIAIAIENSFLYKKVKESSIKDPFLGIYNRKHFFDMIEGKVAKDSRRSFAIVMLDIDHFKSFNDSYGHQFGDEVLIQTAKILEQSIGEKDEVARYGGEEIVLYLNDAQSKEKVFKTVDGIRASLSNNSVRHGGIEKRVTASFGISYYPQNGETVEKVVSVADAMLYEAKNSGRNKVVSSL”, the protein production entry is “failed”.
For the sequence “MGFFDSGIGGMTVLYEAIKVLPYEDYIFYADTLNVPYGEKSKGKVKEYIFNAAEFLASQNIKALVIACNTATSIAIEDLRRNFDFPIIGIEPAVKPAINKCTEERKRVLVVATNLTLKEEKFHNLVKEIDHHDLVDCLALPGLVEFAENFDFSEDKIIKYLKNELSSFDLKQYGTIVLGCTHFPFFKNSFEKLFGIKVDMISGSVGTAKQLKKVLADRNQLGKGSGSITFFNSGHKIVDQEVISKYKRLFEILDETQRSHVGH”, the protein production entry was “failed”.
Then “MQKGVYIMNSTSSIITIGREYGSGGRQIGQEVAKYFGIKCYDKELLEHAANDSGICKELFEHHDEKPTNSFLYSLVMDTYSFGYSSSGFSDMPMNHKIFLAQFDAIKKLAGEGPCVMVGRCADYALADWNDCFSIFVHADLDWRINRIASKHGKTPKEAKDMITKTDKSRASYYNYYTNKKWGAARSYNLCIDSGKLGIDYATEAIIESIKIFDRTKISK”, with “failed”; and “PCYENKFAPRCARCSKTLTQGGVTYRDQPWHRECLVCTGCQTPLAGQQFTSRDEDPYCVACFGELFA”, with “not failed”.
With “DAHSTIDSRIIHFKLEFANEFLAEKLQVALQSPVYNIYRLRIIDGKPYVLEQTYMSTDVIPGITEDILQKSIYNYIEGKLGLHIASATKILRASSSSENEQHYLQLLPTEPVFEVEQVAYLDNGTPFEYSISRHRYDLFE”, the protein production entry was “not failed”.
As for “MSYSVTLTGPGPWGFRLQGGKDFNMPLTISRITPGSKAAQSQLSQGDLVVAIDGVNTDTMTHLEAQNKIKSASYNLSLTLQKSKRPIPISTTAPPIQSPLPVIPHQKVVANSPANADYQERFNPSVLKDSALSTHKPIEVKGLGGKATIIHAQYNTPISMYSQDAIMDAIAGQAQAQGSDFSGASPLASLPVKDLAVDSASPVYQAVIKTQSKPEDEADEWARRSSNLQSRSFRILAQMTGTEYMQDPDEEALRRSSTPIEHAPVCTSQATSPLLPASAPSPAAASPIAASPTLATAAAAHAVAASAAGPASSPVENPRPQASAYSPAAATSPAPAAHTSYSEGPAAPAPKPRVVTTASIRPSVYQPVPASPYSPSPGANYSPTPYTPSPAPAYTPSPAPTYTPSPAPTYSPSPAPAYTPSPAPNYNPTPSAAYSGGPSESASRPPWVTDDSFSQKFAPGKSTTSVSKQTLPRGAPAYNPTGPQVTPLARGTFQRAERFPASSRTPLCGHCNNVIRGPFLVAMGRSWHPEEFNCAYCKTSLADVCFVEEQNNVYCERCYEQFFAPICAKCNTKIMGEVMHALRQTWHTTCFICAACKKPFGNSLFHMEDGEPYCEKDYINLFSTKCHGCDFPVEAGDKFIEALGHTWHDTCFICAVCHVNLEGQPFYSKKDKPLCKKHAHAINV”, the protein production entry is “failed”.
As for “MNRLLELSNEIFRIKTDDYTFPLFSSLHFKIILCVVITIFIAIIFKEKIKKWKYRRTFEVTTALILLSTQIFLAIWYSRFPNFYLKESLPLYPCRIAIIMAAIGLIWKKNDFAKSIAYFWGTIGAIGALMIPITNSYIFPHITYYTFFIGHYFLLIASLYLILIEEFKVKSKNVKQALIFSFIFAICAFIANYLFDANYAFLNPPNGYEILNIINVESNIITTSIFAYFIFVLGIFIMYLPFNMSDYKKDSLFECSLIKY”, the protein production result is “failed”.
With “GIATSDNFMQAFLNVLDQCPKLEVDIPLVKSYLAQFAARAIISELVSISELAQPLESGTHFP”, the protein production entry is listed as “failed”.
The result for “MKLPRFGVEEWLNVHENSAIYDIAGVSISSLTLEELFALSGTNPEDFYKKLQGTKLNYGWIEGSPAFKKSVSQLYTGVKPEQILQTNGATGANLLVLYSLIEPGDHVISLYPTYQQLYDIPKSLGAEVDLWQIEEENGWLPDLEKLRQLIRPTTKMICINNANNPTGAVMDRTYLEELVEIASEVGAYILSDEVYRSFSELDVPSIIEVYDKGIAVNSLSKTYSLPGIRIGWVAANHQVTDILRDYRDYTMICAGVFDDLVAQLALAHYQEILERNRHILEENLAILDQWIEEEPLVSYIRPAVVSTSFVKIAVDMPMEDFCLQLLQEHGVLLVPGNRFERDGYVRLGFACEQETLIKGLEKLSQFLRRFDKEN” reads “not failed”; that for “QTVNHELQSKVSELSEANNDMKNLLNSTDIATLFLDDSLNIRRFTTRTASIIKLIASDIGRPITDIVTDLHYPALADDAQEVLRTLIFREKQVSANNDRWFSVKIMPYRTQENKIVGLVITFSDITTSKKLEA”, “failed”.
Take “EEHRGEEILAVFDTAFGQLLAADPAAFRVKFRKMAASAFAFYRGTAGLFYRDLTEDPDFGDQHGGAYLDERTSRVWIHGDLHAENFGTYMDSTGRLIFNVNDFDEAYVGPFTWDLKRFAASVALIGYAKAFSDEQITELVRVY”: the protein production entry is given as “failed”.
As to “MIVEKVLIVDPIDGEFTGDVEIEEGKIVKVEKRECIPRGVLMPGFVDPHIHGVVGADTMNCDFSEMEEFLYSQGVTTFLATTVSTSLEKMKEILRKARDYILENPSTSLLGVHLEGPYISKEKKGAHSEKHIRPPSERELSEIDSPAKMLTFAPEIESSELLLRLVKRDIVLSAGHSIATFEEFMKFYKEGVKRITHFPNGLKPLHHREIGITGAGLLLDDVKLELICDGVHLSREMVKLVYKVKKANGIVLVTDSISAAGLKDGTTTLGDLVVKVKDGVPRLEDGTLAGSTLFFSQAVKNFRKFTGCSITELAKVSSYNSCVELGLDDRGRIAEGTRADLVLLDEDLNVVMTIKEGEVVFRSR”, the protein production result is given as “not failed”.
In the case of “MAMNEIALFKGVRIQPYQKYIDFMFASVLAFIFLVYRIYILFIDYKSVNKKLDILTLFAYFKPHLLYLLIGTAIIFVICKLIAQFLIRFKTKDLAEMIETQGFHNRTVIKKTTEYIPIDYKQTEYDYYPTMFYKRGKKSFVIHIKKDGSRFQDNYLELETIIEPMFNSELVEKKHIGRYLRYEFMPLKYKKRIVMNGEQESNTIFYDTKIAITHQITWDFVKAPHGLVTGITGGGKTYFLFYVIRELFRRHSEVRLLDPKVSDLSFMKRVIGDDKVADTKGQILKQLREANNEMEERFRLMNDSSDYKIGNDFRNFDMRPYFIIFDEVTAFTSTLDKKELQEMNDYLINIIMKGRQAGVFMFLTAQRPDADVIKGNVRDQLGLRVSLGNLSNDGYRMTFGQTDKEFQTIHDSDIGRGYISILGQYNEPILFDAPLMEQYDFVEDVKQILNKE”, the protein production result was “failed”.
Consider “MSPAPPRGPGMSQARSLSLILAAVLASLLPVTGSQAGEPGRALWVMSYNIRYDNPDDRPDWRTRRGPMVEQIRFFAPDILGLQEALPAMVDQLAGDLAGYAHYGVGRDDGARLGETTTIFYRAERFQRVLARTYWCSPTPDTPSKAYDAALPRTFTRLVLKDRITGVTFDVRNAHLDHVGAESRAKCAAQILALAPWPKARLITLGDFNSAPEEAPYRLLTAPEGPYRDARAAASSVFSPSTGTFNRFTPASIGPPIDYIFVDRRLNVARFAVPTDVADAGVISDHFPVLAEITLSPKTRAKAKP”, for which the protein production result is “failed”.
Then “MKLCFNEATTLENSNLKLDLELCEKHGYDYIEIRTMDKLPEYLKDHSLDDLAEYFQTHHIKPLALNALVFFNNRDEKGHNEIITEFKGMMETCKTLGVKYVVAVPLVTEQKIVKEEIKKSSVDVLTELSDIAEPYGVKIALEFVGHPQCTVNTFEQAYEIVNTVNRDNVGLVLDSFHFHAMGSNIESLKQADGKKIFIYHIDDTEDFPIGFLTDEDRVWPGQGAIDLDAHLSALKEIGFSDVVSVELFRPEYYKLTAEEAIQTAKKTTVDVVSKYFSM”, with “not failed”; and “MAFSDDLPPPPRVNDHVKTRRNRKRRTIKTKQLEELISTATRAAHVARDKGFYIVSPEAIQCVEILRHMRTLPLNARLITKTDGLRVLLFLSKNGNPKIRSESKAVIDHWKSILHTKVH”, with “failed”.
The result for “MNEKFNINIAWFLIILGGIIECFWVSGLKYSTEIWHYILTAIGVCISFTCFLKACERLEVSITYSVFVGIGTIGVVLNEMFIFNEAVSIIKLVLIAILLLSIIALKWVSKEA” reads “failed”; that for “MGQFSILGFIALGGAIGACSRYLVSEFCVLLFGRGFPYGTLTVNVVGSFIMGLLIAAFENEILATEPWRQVIGLGFLGALTTFSTFSMDNVLLMQQGAFFKMGLNILLNVVLSISAAWIGFQLLMRS”, “failed”.

The values are drawn from a protein production outcome set (Wang et al. 2014).
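Further: failed if final PepcDB status was selected cloned or expressed and not failed if soluble or beyond.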
